The supplement of paper PMC12338614
± gives the uncertainty stated by the source.

B1: library; numbered along this chain (parent)
chain: MEVVDPQQLGMFTEGELMSVGMDTFIHRIDSTEVIYQPRRKRAKLIGKYLMGDLLGEGSYGKVKEVLDSETLCRRAVKILKKKKLRRIPNGEANVKKEIQLLRRLRHKNVIQLVDVLYNEEKQKMYMVMEYCVCGMQEMLDSVPEKRFPVCQAHGYFCQLIDGLEYLHSQGIVHKDIKPGNLLLTTGGTLKISDLGVAEALHPFAADDTCRTSQGSPAFQPPEIANGLDTFSGFKVDIWSAGVTLYNITTGLYPFEGDNIYKLFENIGKGSYAIPGDCGPPLSDLLKGMLEYEPAKRFSIRQIRQHSWFRKKHPPAEAPVPIPPSPDTKDRWRSMTVVPYLEDLHGADEDEDLFDIEDDIIYTQDFTVPGQVPEEEASHNGQRRGLPKAVCMNGTEAAQLSTKSRAEGRAPNPARKACSASSKIRRLSACKQQ

Variants of: B1
Test: STK11 functional score (HeLa growth suppression), rescaled enrichment; synonymous median = 1, nonsense median = 0 (normalised score)
Details: with HeLa; variant type: missense
Method: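 Deep mutational scan (TileSeq/POPCode codon randomisation) of full-length codon-optimised STK11 cDNA integrated at a Bxb1 landing pad (AAVS1) in HeLa cells. Restoring functional STK11 suppresses HeLa proliferation. Variant frequencies were measured by NGS before and after about two weeks of growth. The error-corrected enrichment log-ratio was rescaled so that synonymous median = 1 and nonsense median = 0, scores above 1 were compressed, and codon-level and three biological replicate scores were combined; error is the bootstrapped standard error. Scale: synonymous median = 1, nonsense median = 0; below 0.5 = damaging.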

STK11 functional score: each site, then its substitutions
R40: G 1.19 ± 0.27; S 0.887 ± 0.15; F 1.3 ± 0.15; T 1.68 ± 0.32; V 1.64 ± 0.25; H 1.09 ± 0.64; W 1.24 ± 0.38; L 0.804 ± 0.16; C 1.39 ± 0.074; M 1.28 ± 0.43; D 1.68 ± 0.41; P 1.17 ± 0.38; A 1.6 ± 0.36; K 1 ± 0.48; E 1.41 ± 0.47; I 1.63 ± 0.21
K44: T 0.843 ± 0.28; V 0.967 ± 0.15; W 1.3 ± 0.074; A 1.57 ± 0.37; F 1.34 ± 0.26; M 0.633 ± 0.17; Y 1.46 ± 0.087; C 1.12 ± 0.2; L 1.36 ± 0.2; Q 1.24 ± 0.31; S 1.4 ± 0.21; R 1.12 ± 0.4; I 1.16 ± 0.26; N 1.08 ± 0.33; G 0.448 ± 0.26; D 0.859 ± 0.084
Y49: Q 0.0367 ± 0.35; C 1.01 ± 0.28; D 0.131 ± 0.35; M 1.22 ± 0.82; P 0.101 ± 0.089; I 1.24 ± 0.13; S 1 ± 0.28; R 0.545 ± 0.19; V 0.956 ± 0.099; F 1.12 ± 0.3; L 0.852 ± 0.22; H 1.11 ± 0.48
K41: R 1.6 ± 0.33; I 0.844 ± 0.095; A 1.25 ± 0.34; H 1.44 ± 0.13; W 1.49 ± 0.17; L 1.27 ± 0.24; V 1.36 ± 0.19; Q 0.893 ± 0.4; G 1.25 ± 0.13; D 1.39 ± 0.18; S 1.46 ± 0.16; F 1.14 ± 0.082; E 1.42 ± 0.65; C 1.47 ± 0.3; P 1.58 ± 0.37; T 1.27 ± 0.49
I46: L 1.25 ± 0.14; G 0.857 ± 0.11; H 1.58 ± 0.33; P 0.555 ± 0.13; M 0.908 ± 0.76; E 1.57 ± 0.41; Y 1.29 ± 0.28; R 0.979 ± 0.36; C 1.17 ± 0.2; W 0.0413 ± 0.094; T 1.24 ± 0.27; A 1.5 ± 0.22; V 0.613 ± 0.39; S 0.762 ± 0.1; D 0.149 ± 0.15
K48: N 0.966 ± 0.39; D 1.34 ± 0.081; Q 1.41 ± 0.37; A 0.852 ± 0.2; Y 1.4 ± 0.13; I 1.34 ± 0.13; L 1.3 ± 0.17; T 1.59 ± 0.29; R 1.42 ± 0.54; V 1.24 ± 0.42; P 1.41 ± 0.45; S 1.37 ± 0.19; W 0.798 ± 0.087
P38: E 1.36 ± 0.39; H 1.11 ± 0.58; V 1.01 ± 0.095; F 1.31 ± 0.25; Y 0.0651 ± 0.12; D 1.7 ± 0.3; K 1.6 ± 0.22; L 0.812 ± 0.14; W 0.876 ± 0.077; N 0.557 ± 0.099; Q 1.58 ± 0.15; G 0.508 ± 0.53; A 1.06 ± 0.29; S 1.06 ± 0.12; R 0.891 ± 0.086; T 0.9 ± 0.23; M 1.09 ± 0.92
G47: R 1.31 ± 0.58; V 0.431 ± 0.69; A 1.4 ± 0.58; S 1.62 ± 0.59
R42: K 1.26 ± 0.84; S 1.08 ± 0.58; T 0.779 ± 0.39; W 1.68 ± 0.52
R39: E -0.363 ± 0.48; G 1.04 ± 0.45; K 0.866 ± 0.75; H 1.13 ± 0.23; A 1.12 ± 0.42; N 0.65 ± 0.66; D 1.19 ± 0.099; I 1.12 ± 0.38; Q 0.277 ± 0.097; S 1.17 ± 0.36; V 1.22 ± 0.14; L 1.45 ± 0.17; M 1.58 ± 0.16; C 0.223 ± 0.2; W 1.22 ± 0.49; T 0.548 ± 0.26
Q37: L 1.15 ± 0.3; R 1.34 ± 0.29; V 1.38 ± 0.15; M 1.17 ± 0.1; P 1.16 ± 0.21; N 0.934 ± 0.53; W 0.288 ± 0.12; I 1.65 ± 0.17; T 1.69 ± 0.12; S 1.34 ± 0.13
A43: L 1.58 ± 0.34; W 1.06 ± 0.11; F 1.23 ± 0.18; R 1.64 ± 0.26; Y 1.67 ± 0.16; P 1.37 ± 0.46; S 1.34 ± 0.25; I 1.18 ± 0.48; G 0.859 ± 0.32; V 0.673 ± 0.17; Q -0.492 ± 0.15; T 1.43 ± 0.16; M 1.57 ± 0.33
L45: F 1.1 ± 0.26; T 1.27 ± 0.78; M 1.25 ± 0.08; A 0.863 ± 0.17; D 1.34 ± 0.11; Y 0.913 ± 0.38; R 1.18 ± 0.29; S 1.36 ± 0.14; K 1.53 ± 0.23; G 1.25 ± 0.18; W 1.65 ± 0.16; C 1.08 ± 0.4; V 0.939 ± 0.17; N 0.985 ± 0.86; I 0.969 ± 0.33
